Laboratory results: patent EP0132021B1, “TGF polypeptides, antigenic oligopeptides derived therefrom and antibodies produced therefrom” (Todaro, George Joseph, priority 1983, dated 1985)

Tests used:
[1] = biological target: T1, EGF receptor sites on A431 human carcinoma cells (Homo sapiens, UniProt P00533); test: 125I-EGF radioreceptor (binding competition) assay on formalin-fixed A431 cells
T1 construct: Human epidermoid A431 cells have in excess of 10⁶ EGF receptors per cell; endogenous in cells; host or cells: A431 human epidermoid carcinoma cells (formalin-fixed in A1)
Method: Purified EGF was labeled with Na¹²⁵I by a modification of the chloramine-T method as described in DeLarco et al. (1978) Proc. Natl. Acad. Sci. USA 75, pp. 4001-4005. The ¹²⁵I-EGF binding assay was performed on subconfluent monolayers of formalin-fixed A431 human carcinoma cells as previously described (in DeLarco et al. (1980) J. of Biol. Chem. 255, pp. 3685-3690). The fixed cells were washed twice with 0.5 ml of binding buffer (Dulbecco's modified Eagle's medium containing 1 mg/ml of bovine serum albumin and 50 mM 2-[bis(2-hydroxyethyl)amino]ethanesulfonic acid, pH 6.8). Competitions were initiated by the addition of 0.2 ml of binding buffer containing 0.4 ng of ¹²⁵I-EGF with or without potential inhibitor. After incubation for 1 h at 22°C, the specifically bound ¹²⁵I-EGF was determined. The TGF content was expressed by its degree of inhibition of the binding of ¹²⁵I-EGF to the EGF receptor. One EGF-competing activity unit is defined as the amount of protein that inhibits the binding of ¹²⁵I-EGF to its receptor by 50%.
TGF was quantitated in a radioreceptor assay based on receptor crossreactivity with mouse submaxillary gland epidermal growth factor (mEGF). […]

[2] = biological target: T2, tyrosine-specific protein kinase (Homo sapiens, UniProt P00533); test: Stimulation of tyrosine-specific protein kinase (phosphorylation of synthetic angiotensinyl peptide substrate); assay type: biochemical
T2 construct: endogenous in cells; host or cells: human tumor cell membranes (said in the general description, not in the assay sentence)
Source text: A consequence of TGF or EGF binding to the EGF membrane receptors is the stimulation of phosphorylation of tyrosine residues of synthetic peptides or endogenous substrates (Pike et al. (1982) J. Biol. Chem. 257, pp. 14628-14631).

NRK cells = test: Soft agar transforming assay with fetal bovine serum and TGF-beta; assay type: cell-based, rat; conditions: in the absence of TGF-beta
Source text: Synthetic rTGF prepared in accordance with this Example was compared with natural rTGF in three assays for biological properties of the putative transforming growth factor.

[3] = after oxidation and regeneration, prior to purification

EGF-radioreceptor activity when compared to the natural rTGF-I [1, 3]	tyrosine-specific protein kinase activity when compared to the natural rTGF-I [2, 3]	IC50 ([1]; A431 human carcinoma cells, read-out: concentration required for 50% inhibition of 125I-EGF binding) [nM]	EC50 ([2]; read-out: half maximal activity, stimulation of phosphorylation of the synthetic angiotensinyl peptide substrate) [nM]	Substance	transformation of NRK cells in culture (NRK cells)
40-50%	40-50%	–	–	regenerated, crude rTGF-I: crude synthetic rTGF oxidized and regenerated by the mixed disulfide method, prior to any purification	–
–	–	4.1	0.3	synthetic rTGF: rat TGF made by stepwise solid-phase chemical synthesis, oxidized and purified to homogeneity	does not produce such an effect
